From the DeepSol protein solubility set

Experiment: soluble on expression in E. coli; label from the status in PepcDB or PDB records

| Sequence | soluble on expression in E. coli |
| --- | --- |
| SHVETGPNGEQIRKHAGQKRTYKAISESYAFLPREAVTRFLMSCSECQKRMHLNPDGTDHKDNGKPPTLVTSMIDYNMPITMAYMKHMKLQLLNSQQDEDESSIESDEFDMSDSTRMSAVNSDLSSNLEERMQSPQNLHGQQDDDSAAESFNGNETLGHSSIASGGTHSREMGDSNSDGKTGLEQDEQPLNLSDSPLSAQLTSEYRIDDHNSNGKNKYKNLLISDLKMEREARENGSKSPAHSYSSYDSGKNESVDRGAEDLSLNRGDEDEDDHEDHDDSEKVNETDGVEAERLKAFNDESAPADKQCKPEATQATYSTSAVPGSQDVLYINGNGTYSYHSYRGLGGGLLNLNDASSSGPTDLSMKRQLATSSGSSSSSNSRPQLSPTEINAVRQLVAGYRESAAFLLRSADELENLILQQN | soluble |
| MDRIRNDGVFYEIAYAESLMPATRKNTLFNGRVLIRSLKSKNIIFSSGAETMLDLRSPVDVMNMSLLWGVANNEARKMISGFPKNLLLQAECRGTGNGDVCSMKLSDAEKLAGNGEEEEQDGASEEKVVVGKEEEAEKVKAPPIEVRMNHSQYQALLQATKNANDMMKKIKASKAASSS | not soluble |
| MDKQHFKLWYFQFRGRAEPIRLLLTCAGVKFEDYQFTMDQWPTIKPTLPGGRVPLLDVTGPDGKLRRYQESMAIARLLARQFKMMGETDEEYYLIERIIGECEDLYREVYTIFRTPQGEKEAKIKEFKENNGPTLLKLVSESLESSGGKHVAGNRITLGDLFLFTTLTHVMETVPGFLEQKFPKLHEFHKSLPTSCSRLSEYLKKRAKTPF | soluble |
| MSLSRRIGIIDTTLRDAQQCLWATRMTAGMMDPIAQALDEAGFDMIDFMAPVQFDVCVRYLREDPFEKARHFRKRFRNTPMRSYCRSKSLVGFSMVPDDMVELWIDCLAANGFSAVGTLDSLLDVDNMKVSVGRAKKIGIKSIGALVFCESPLHTDALYAGTAAELVRCGVDGIMLKDSGALLTIERIRTLIPALRAAVGDIPIEVHSHSNTGLVQRVYLDAADLGIDQLHTSIAPLAGGVAQPSIQNMTRNLAQRGYRTDVDMARVEEISAYLHRLAARYDFPLGKEGHHHHHH | not soluble |
| MKLWAIYFEPEDWVGFRETRRFSFSDRVESVFPSSFPFYGAVRTALLMKNQKFDPGDVERAGDVRMFGPFVFENTPEGRKHYFPLPRNIYKTDSGYRVTPIVEIDGVYLPWKPEYKMDSKESTSGGLIELSDLELLRSNTQGVCKFDLVSAEKIFKKETHIGVAFEENRKKVKERMIYSISYYRFYDGGFFMFTDDERTVELVSKLDGVFLGMKSKWSAVEVEELNTTAFDPPDYKNVAVALITPAVFDGGGMPKDKTILGKRVLTTAGIRKQVVSGWDLRENKPKKIYHAVSPGAVYYLEGKVNGHVLNESKFTDFGFGRCIFMKYEKL | soluble |
| MGSDKIHHHHHHMMTQLSAPTLTKDPLTSQDRQIIATIVNQSDYSKECKPEDVVTIWINSDDIVWVKMTHGYARYHKQSFKRAVAEVKASLSAPVERNHKEEKELKQASEKIGLLGDCDWLSLSVQYHSDKVTGHAACYISHKARILTPLAEWDFTIPKWNMPAAICPDCDGHGCGNCGYRGTRAEDLCTPVDGYRLTYVGKTDIQTAHNVYLDGVFLGILFKVRNPDEIWENDPKTYYWQGSNGMKYWSLKEAVESFTQDVVTNKVPQVRQELAVA | not soluble |
| DENASAAEQVNKTIIGIDPGSGIMSLTDKAMKDYDLNDWTLISASSAAMTATLKKSYDRKKPIIITGWTPHWMFSRYKLKYLDDPKQSYGSAEEIHTITRKGFSKEQPNAAKLLSQFKWTQDEMGEIMIKVEEGEKPAKVAAEYVNKHKDQIAEWTKGVQKVKGDKINLAYVAWDSEIASTNVIGKVLEDLGYEVTLTQVEAGPMWTAIATGSADASLSAWLPNTHKAYAAKYKGKYDDIGTSMTGVKMGLVVPQYMKNVNSIEDLKK | soluble |
| MGSDKIHHHHHHMKIILANPRGFCAGVDRAISIVELALEIHGAPIYVRHEVVHNRFVVDGLRDRGAIFVEELDEVPNGAIVIFSAHGVSQAVRQEAKERNLKVFDATCPLVTKVHMQVARASRKGTKAILIGHEGHPEVIGTMGQYDNDKGGIYLVEDVEDIAKLTLRNDEDITFMTQTTLSIDDTADVIEVLKQKYPAIQGPRKNDICYATTNRQQAVRELAELSDLVIVVGSKNSSNSNRLAELASRMGVTAKLIDDANDIEVSWLNNVKVIGLTAGASAPEILVQSVISRLKELGVDEVEELEGCEENTVFEVPKELRINKVE | not soluble |
| SEQIMSSQQVARRMMLDIGDKPQEHLVAIYLDTQNRIIQQKTVFIGGVRRSIAEPREILYYACHLMATSLIVVHNHPSGEAYPSRNDIDFTQKIKRSCDDLGICLLDHLIVGKSTYYSFREEREDFEL | not soluble |
| MGSDKIHHHHHHMPPSFLWISSEVDLKVSSNGDCDHVVFLVDSHFNTCTESNYESFKVSCVAGTNTKDPTEFTKIELGHRPAGSTESPYDNSGFSVEFNGVFENSKQIECVLTRSSINREKRSSISTKKISKTKPKTQLHIFCYRICEIETKIQVISGRSIGSCRCRRNNKIIIPKNADLQILQRESESSHCHYREKNHKKLFHENSLPVMKFSVFNYNTQKW | not soluble |
| MEKKTANDVVTLARAQDRLTTLEYIEAIFEDFLEFHGDRYFADDLAVVGGVATLQGKPVTVVGIQKGRNLPENIERNFGSPNPEGYRKALRLMKQAEKFNRPVITFVNTAGAYCGIGAEERGEGEAIAQNLLEMSDLKVPIISVIIGEGGSGGALALAVADEVWMLEHTIYAVLSPEGFASILWKDGSRAKEAAELMKITATELKELAIVDKVIPEVMNGQPLEQAKINRMLQKAFISKLTELAKLDTETLLEKRYQRFRKY | not soluble |
| MTPHATPAPRVSAIVSLYNAERFVRGCLDDLLGQTLADSLEIIVIDACSPQGEGAIVQDYMRDHPNIVYVRTDEREGVYASWNRGVRLARAPYVTNANADDRHREDALERLAAALDEAPEAGFAYGDCRVGQTENERYADNAGQRVMRFPDFFAPATLLYCQLGPQPLWRRSVHDVVGFFDESYRACADWDFDIRLAAAFRGIHVPDALGLYLEHEAAITFRDDTMTRENDRVQRQWQHPEAVEERYRAAGVPCHTAEERALVHFDMALRALRFYPPWCYGAPAHNPGFARRCLRHALRLAPALAPAKELLALPDAVLTALDDLPSPLGLPSQATLAGVAAPLEHHHHHH | not soluble |
| MDKSKINFNYQSRAVYSANPQTSRGRLFHETMNTLRSPFQRDRDRIIHSNAFRRLKHKTQVFIADESDHYRTRLTHSIEVSQIARTLARALYLDEDLAESIALVHDFGHTPFGHAGEDALNEAMAPYGGFDHNAQALRIVTKLEQRYANFDGLNLTWETLEGLVKHNGPLLGPYAKNKDIPIDILQYNAKQDLQLNCFAGLEAQCAAIADDIAYNAHDVDDGLRSQFLTLDQFEQVSLTAALLNDIKKEHPQLDQTRRGYTLVRRQIKTMVEDVIKQSQENLARVKPKSISDVHQAEQTIVTFSPTMAVYERELKDFLFKNLYYHDQVLNRRNAAKRIVQKLFECYYENPDVMPENWHNKTAHLTNQELARLIADFLSGMTDHYALREYQHLFDCTDNFI | not soluble |
| MRLPALFLAHGSPMLAIEDNAYTAFLGKLGEGIRPQAVVIFTAHWMTRQPTVSAVEGTYDMIYDFSGFPRELYEVVYLARGSVEWAERVRERLAGVAEVAVDSTRGLDHGSWVLLHRLFPNADIPVVQASVLPWWTPKQLFQLGEALRPLRDEGLMVIGSGGTVHNLMALRWEGHAEADAWAMAFDDWLLSRSAAHSEEVFDYENKAPYAKQAVPTPEHLAPYWIAYGAGDRDQAPRVLFREYQYGSLSLMAVTF | not soluble |
| MKTQRIIHPNIDIRKFPEVNTDFSMTDISMGDLHANALLFLNILVRQGIIAISPENYAKFAEIYTLPELQADYWGTEAPVFSAENKQERLEEIKKQYNALIAQIKIINTKKLIRLIGDELVDRGVIDYFILKLLQALYDQGADFEILLSNHGIEFVEACELFKENGNKLVAKRLGNIQHGNSFHALQEAIAAGAISNEEVLNIYHQVYKKHLKIISYSLDPDANEIKVFSHAGIGLNHIRGLARKFKVPYSEESAVDLAKTIDAINKKFAEKASSGEIHTLYTHDMMYRGYAGEHLNSTDEVVAATVWGREYGDLIRTSKKFKITFIHGHDSYDPEKVEHVTLNNQLGQFQNNVGDLYLYATNGMRAVPTQYLNPDKKIQGSREKDRPDKPNDYVVKIHHTKPSFFKTSNPKITFPDSYKRIWDSADGDSNITKIKALLKDYTKEDSILGSFWGLIFTLHWGRHHVKSVHQIAQTKYTSVEAILSDLKALKPREGGSLDKRIKFIELQIIAQRCDSPEPQFNLK | not soluble |
| MAISSRNTLLAALAFIAFQAQAVNVTVAYQTSAEPAKVAQADNTFAKESGATVDWRKFDSGASIVRALASGDVQIGNLGSSPLAVAASQQVPIEVFLLASKLGNSEALVVKKTISKPEDLIGKRIAVPFISTTHYSLLAALKHWGIKPGQVEIVNLQPPAIIAAWQRGDIDGAYVWAPAVNALEKDGKVLTDSEQVGQWGAPTLDVWVVRKDFAEKHPEVVKAFSKSAIDAQQPYIANPDVWLKQPENISKLARLSGVPEGDVPGLVKGNTYLTPQQQTAELTGPVNKAIIDTAQFLKEQGKVPAVANDYSQYVTSRFVQ | not soluble |
| MDKNLLEAVKFDEKGLVCAIAQDAETKRILMVAWMNAEALQKTVETGFAHYYSRSRQKQWMKGEESGHTQKVRALRLDCDGDAIVMLIAQNGGIACHTGRESCFYKVWRGSAWETADAVLKDEKEIYGSTH | not soluble |
| LPAFFKTFDRQEDFMVDVFRLNIDALKENYLPLARFFENLNENTGNESSVILETSKSGMPNFRVKKGEHTFFVHSPYDPRTEAIRWAEKIDLKGFDTIAVLGIGCGYHIEELEKKYPDKNKIVIEPDRNVFLKLLNTRDITHLISSKNILFIISDNTEEIAKVFLLLREEGEIDSVEFNELLSYRKVYEDWWLELKKEYIKFARLHQINTNTSVFFAEAWLTNLFEGMWQLTKSVHIKEYKSAFANIPAIVVSAGPALNKNVHLLKELYNKAVIISAGSALNILESRGITPHIMVGVDGGEAESRIFNNVKSNEIYFAYSLSVHYDGLKNYSGPKIYFKTNVLGYGDWIDEKLGIEGAENLRSGSSVSNLSLDIARYMGCNPIIVIGQNLSFPNLESYADGAVLKQEQDRHIQQCVENSNKYYVLEKDIDGNDVYTTHSMLSIRFYFEEYIKNHPDRLYLNGSEEGLPIKGMKNMPLKEIVEKYCTKEYDIKGILDKKFKEEFEAENVKAKEIKIRRILEDIHKESTEIRQKAIKRIDLILDILSNIRGSHNDKWEEIDRLTDEIESSDLYKYFVEPLSKYFIQAVKNERERKMESIPDIQERLKYLYEGLLIQYVEVKDKIVLIDDLSQKIIENIDKKEATKCLSMV | soluble |
| MGSDKIHHHHHHMLTGVEVRHFKSWRASEWIACAPITMFFGSNSSGKTSLLQLLLLLKQTTESSDRQQVLNLGDTHSPVDAGTFPDLLHRHEQTQSLFWRIAWQLPPDLTIALPGRKNGDHLPARELAFQARIGWHQHSDSTPNLQAQASHGRAVVEEMAYQLAGYTLGMRLRDRVKQEYELYSDPAGLFSRPSRKSPRLPSPVKCYGFPDEVQKYYKHVSFLTDLEFALEQLCRRMTYLGPLREYPRRQYTWSGTPPTGVGYRGERVIEALLASRLSSDVASGTDSDQPSALETRVAEWLKTMELIADFAVRAVAPGASLFQVWVRRAQQAPEVLMTDVGFGISQMLPVITLCYYVPKGSIVILEHPEIHLHPRAQADLADVLIDAVKTRGVQIIVESHSEHLLRRLQRRIAEDVLPSDQAALYVCTTDAEGVSHIQRLHLDPYGNITNWPKDFFGDEMGDLLAMSEAAMKRQLGQV | not soluble |
